Reference: publication PMC8217331 (Neuron, 2021)

B1: GST-AChR-α (loop between 3rd and 4th transmembrane domains) (domain or fragment, UniProt P04756 317-428, looked up)
chain: NTHHRSPSTHIMPEWVRKVFIDTIPNIMFFSTMKRPSRDKQEKRIFTEDIDISDISGKPGPPPMGFHSPLIKHPEVKSAIEGVKYIAETMKSDQESNNAAEEWKYVAMVMDH
modifications: CF555 label (Mix-n-Stain CF555)
B2: GST-MACF1 (aa 1M-293I) (domain or fragment, UniProt Q9QXZ0 1-293, looked up)
chain: MSSSDEETLSERSCRSERSCRSERSYRSERSGSLSPCPPGDTLPWNLPLHEQKKRKSQDSVLDPAERAVVRVADERDRVQKKTFTKWVNKHLMKVRKHINDLYEDLRDGHNLISLLEVLSGIKLPREKGRMRFHRLQNVQIALDFLKQRQVKLVNIRNDDITDGNPKLTLGLIWTIILHFQISDIYISGESGDMSAKEKLLLWTQKVTAGYTGVKCTNFSSCWSDGKMFNALIHRYRPDLVDMERVQVQSNRENLEQAFEVAERLGVTRLLDAEDVDVPSPDEKSVITYVSSI
modifications: CF555 label (Mix-n-Stain CF555)
B3: GST-β-dystroglycan (aa 773Y-893P) (domain or fragment, UniProt Q62165 773-893, looked up)
chain: YRKKRKGKLTLEDQATFIKKGVPIIFADELDDSKPPPSSSMPLILQEEKAPLPPPEYPNQSMPETTPLNQDTVGEYTPLRDEDPNAPPYQPPPPFTAPMEGKGSRPKNMTPYRSPPPYVPP
modifications: CF555 label (Mix-n-Stain CF555)
B4: Rapsn-EGFP, purified (natural protein, UniProt P12672 1-412, looked up)
chain: MGQDQTKQQIEKGLQLYQSNQTEKALQVWMKVLEKGSDLVGRFRVLGCLVTAHSEMGRYKEMLKFAVVQIDTARGLEDADFLLESYLNLARSNEKLCEFHKTISYCKTCLGLPGTRAGAQLGGQVSLSMGNAFLGLSLFQKALESFEKALRYAHNNDDTMLECRVCCSLGSFYAQVKDYEKALFFPCKAAELVNDYGKGWSLKYRAMSQYHMAVAYRLLGHLGSAMECCEESMKIALQHGDRPLQALCLLCFADIHRSRGDLETAFPRYDSAMSIMTEIGNRLGQVHVLLGVAKCWMARKVQDKALDAIEKAQDLAEEVGNKLSQLKLHCLSESIYRSKGLQRELRTHVVRFHECVEETELYCGLCGESIGERNSRLQALPCSHIFHLRCLQNNGTRSCPNCRRSSMKPGFV
B5: GST-AChR-β (loop between 3rd and 4th transmembrane domains) (domain or fragment, UniProt P09690 333-469, looked up)
chain: HHRSPHTHQMPFWVRQIFIHKLPPYLGLKRPKPERDQLPEPHHSLSPRSGWGRGTDEYFIRKPPSDFLFPKLNRFQPESSAPDLRRFIDGPTRAVGLPQELREVISSISYMARQLQEQEDHDALKEDWQFVAMVVDR
modifications: CF555 label (Mix-n-Stain CF555)

Key:
Rapsn-EGFP, purified = biological target: B4; assay: co-condensation into droplets
[1] = biological target: α-actinin2 (aa 1M-894L), purified ( (the printed UniProt entry …, UniProt Q9JI91 1-894, CF555 label (Mix-n-Stain CF555))); assay: co-condensation into droplets
Chain of α-actinin2 (aa 1M-894L), purified ( (Q9JI91 whole entry): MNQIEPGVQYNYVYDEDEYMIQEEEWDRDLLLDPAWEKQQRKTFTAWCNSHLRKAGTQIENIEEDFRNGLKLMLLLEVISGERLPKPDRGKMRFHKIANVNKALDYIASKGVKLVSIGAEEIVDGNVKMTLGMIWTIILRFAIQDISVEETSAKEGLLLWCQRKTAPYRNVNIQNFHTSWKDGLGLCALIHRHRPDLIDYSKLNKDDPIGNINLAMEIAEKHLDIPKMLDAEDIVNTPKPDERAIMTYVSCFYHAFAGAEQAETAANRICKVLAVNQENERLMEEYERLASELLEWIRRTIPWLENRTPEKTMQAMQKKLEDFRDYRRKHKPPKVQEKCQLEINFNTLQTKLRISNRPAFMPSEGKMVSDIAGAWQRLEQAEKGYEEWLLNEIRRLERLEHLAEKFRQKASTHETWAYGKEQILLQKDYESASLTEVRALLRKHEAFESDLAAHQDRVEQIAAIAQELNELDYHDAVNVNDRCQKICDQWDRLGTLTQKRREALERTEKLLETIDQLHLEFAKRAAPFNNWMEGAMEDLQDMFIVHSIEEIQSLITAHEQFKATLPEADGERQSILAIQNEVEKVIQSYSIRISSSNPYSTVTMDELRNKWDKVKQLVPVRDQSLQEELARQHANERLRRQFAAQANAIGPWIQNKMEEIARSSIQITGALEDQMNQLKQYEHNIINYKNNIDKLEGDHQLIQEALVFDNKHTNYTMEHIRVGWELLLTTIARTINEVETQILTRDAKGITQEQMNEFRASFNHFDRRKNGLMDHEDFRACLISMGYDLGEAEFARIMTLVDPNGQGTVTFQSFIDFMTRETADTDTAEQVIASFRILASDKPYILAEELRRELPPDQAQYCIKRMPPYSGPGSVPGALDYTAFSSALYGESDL

B1: binds (Rapsn-EGFP, purified).

B2: binds (Rapsn-EGFP, purified).

B3: binds (Rapsn-EGFP, purified).

B4: binds [1].

B5: binds (Rapsn-EGFP, purified).
